From patent publication US20110251266, “APTAMER FOR NGF AND USE THEREOF” (Shionogi & Co., Ltd., published 2011) come the findings set out here.

Holding throughout (settings): tags: R&D Systems human NGF; chain copies: 2
The target in data set [1] is T1, beta-NGF (nerve growth factor) (Homo sapiens, UniProt P01138 P01138:122-241). In words: cell_activity; Neuroscreen-1 neurite outgrowth, 1.1 nM NGF. As for the experimental part:
The neurite outgrowth inhibitory activity of aptamer was evaluated by using Neuroscreen-1 cell, which is a subclone of PC-12 cells. 2500 Cells per well were cultured for one day in an RPMI-1640 medium containing 2.5% horse serum and 1.25% fetal bovine serum in a 96 well flat-bottom plate coated with collagen type IV. A mixed solution of NGF (final concentration 15 ng/ml or 1.1 nM) prereacted in a serum-free RPMI-1640 medium at room temperature or 37° C. for 30 min to 1 hr and an aptamer (final concentration 500-3 nM) was added. Two or three days later, the cytoplasm and nuclei were stained using Cellomics Neurite Outgrowth Kits (manufactured by Thermo Scientific), and neurite length per cell was measured by Cellomics ArrayScan VTI (manufactured by Thermo Scientific). With the neurite length per cell obtained by culturing the cell for 2 days with the addition of NGF alone as inhibitory activity 0%, and that of the cell obtained by NGF free culture as inhibitory activity 100%, the inhibitory activity of the aptamer was calculated from the neurite length per cell obtained by culturing with the addition of NGF and the aptamer in mixture. […] When the inhibitory activity was 0% or below, ‘0%’ is indicated. […] The 50% inhibitory concentration was determined from the concentrations at two, above and below points sandwiching the 50% inhibitory activity.

The target in data set [2] is T1, beta-NGF (nerve growth factor). In words: SPR; more than 30N; cell IC50 26.1 nM.
Data set [3] shares this target. In words: cell_activity; Neuroscreen-1 neurite outgrowth; 92% inhibition at 300 nM (Table 5).
For data set [4] the target is unchanged. In words: cell_activity; 100 nM aptamer; parent 92.7%. As for the experimental part: The neurite outgrowth inhibitory activity of aptamer was evaluated by using Neuroscreen-1 cell, which is a subclone of PC-12 cells. 2500 Cells per well were cultured for one day in an RPMI-1640 medium containing 2.5% horse serum and 1.25% fetal bovine serum in a 96 well flat-bottom plate coated with collagen type IV. A mixed solution of NGF (final concentration 15 ng/ml or 1.1 nM) prereacted in a serum-free RPMI-1640 medium at room temperature or 37° C. for 30 min to 1 hr and an aptamer (final concentration 500-3 nM) was added. Two or three days later, the cytoplasm and nuclei were stained using Cellomics Neurite Outgrowth Kits (manufactured by Thermo Scientific), and neurite length per cell was measured by Cellomics ArrayScan VTI (manufactured by Thermo Scientific). With the neurite length per cell obtained by culturing the cell for 2 days with the addition of NGF alone as inhibitory activity 0%, and that of the cell obtained by NGF free culture as inhibitory activity 100%, the inhibitory activity of the aptamer was calculated from the neurite length per cell obtained by culturing with the addition of NGF and the aptamer in mixture. […] When the inhibitory activity was 0% or below, ‘0%’ is indicated. When it was not less than 100%, ‘100%’ is indicated. The 50% inhibitory concentration was determined from the concentrations at two, above and below points sandwiching the 50% inhibitory activity.
Inverted dT is added to the 5′ and 3′ terminals. The activity was evaluated using Neuroscreen-1 cells in the same manner as in Example 8.

For data set [5] the target is unchanged. In words: SPR; more than 30N; inhibits TrkA and P75 binding. As for the experimental part:
As directed in BIAcore Company's protocol, Protein A (21181, PIERCE) was immobilized on a CM5 sensor chip. About 1100 RU of human Trk A-Fc fused with the Fc portion of IgG (175-TK, R&D systems) was immobilized thereon. As the analyte, a mixture of NGF (0.1 μM) and each aptamer (0.33 μM) was injected after being allowed to stand for 30 minutes. […] When NGF binds stronger to a receptor than an aptamer, the aptamer may be removed and NGF may bind to the receptor. […] Using the binding amount of NGF and NGF receptor without an aptamer as 100, the binding amount of NGF and NGF receptor added with an aptamer was determined as a correction value. Here, the binding amount is the RU value at the peak top of the sensorgram of BIAcore (RU value immediately after completion of NGF injection). […] A similar experiment was performed for another receptor P75 (p75-Fc; R&D systems).
(In SPR one partner is held on a chip, and binding of the other changes the refractive index at the surface.)

The IC50 is the point on the concentration scale where inhibition reaches its midpoint. A low value points to greater potency.

T1 sequence (P01138 122-241, one chain of several): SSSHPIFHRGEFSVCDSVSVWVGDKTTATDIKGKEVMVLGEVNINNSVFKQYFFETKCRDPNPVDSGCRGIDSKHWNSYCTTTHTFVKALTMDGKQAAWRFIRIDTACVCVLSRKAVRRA

B1: SEQ68 aptamer (ssRNA)
RNA: GGGAGAACUUCGACCAGAAGUCGAGAGCGAAAGAAACUCCCAAAACACAGUAUGUGCGCAUACAUGGAUCCUCA
modifications: 2'-F pyrimidines
In data set [1], B1 yielded an IC50 of 1.9 nM.

B2: SEQ44 aptamer (ssRNA)
RNA: GGGGAACUUCGACCAGAAGUUUGAAAGAAACCCAAAAUUAGCACCAUAAUAUGUGCGCAUACAUGGAUCCUCA
modifications: 2'-F pyrimidines
With B2, the binding result in data set [2] is “binds”.

The molecule GGGAAGCCUGUGGAGCUGCAGGAUGAAAAAAACCCAAA (ssRNA, 2'-F pyrimidines) [SEQ35 aptamer] had a half-inhibitory concentration (IC50) in data set [3] of 91.5 nM. In other words, the double-digit nanomolar range.

As to GGGAUAAAAUUAGAGUUUGAUAAACACCUGUAAUAAAACCC (ssRNA, as SEQ30(6) [as SEQ30(6) (positions not stated)]) [SEQ30(6) A10:U33 to U:A], the activity in data set [4] stood at 80.8 % inhibition.

As to GGGAUAAAAAUUGAGUUUGAUAAACACCUGAAUUAAAACCC (ssRNA, as SEQ30(6) [as SEQ30(6) (positions not stated)]) [SEQ30(6) A12:U31 to U:A], the activity in data set [4] stood at 93.1 % inhibition.

B3: SEQ60 aptamer (ssRNA)
RNA: GGGAGAACUUCGACCAGAGGAUUUGAAAAAAACCCGAAUAAAGAUAACAGUAUGUGCGCAUACAUGGAUCCUCA
modifications: 2'-F pyrimidines
For the molecule B3, the binding result in data set [5] was “binds”.
